Molecular target: IgE of dust mite allergic patient Donor 11 (serum IgE; IgE on the donor's basophils in the histamine release …)
Test: cell-based or functional assay

- potency to induce histamine release in human basophil assay, relative to nDer p 1: 20 fold
B1: Der p 1 variant DP060 (S54N, Q68F) (other)
chain: TNACSINGNAPAEIDLRQMRTVTPIRMQGGCGSCWAFSGVAATESAYLAYRNQNLDLAEQELVDCASFHGCHGDTIPRGIEYIQHNGVVQESYYRYVAREQSCRRPNAQRFGISNYCQIYPPNVNKIREALAQTHSAIAVIIGIKDLDAFRHYDGRTIIQRDNGYQPNYHAVNIVGYSNAQGVDYWIVRNSWDTNWGDNGYGYFAANIDLMMIEEYPYVVIL

Source: US20070225207A1 (NOVOZYMES A S, published 2007)
